# Positions count from the first letter of the chain named. In names and notes the source's numbering stands.
# B1: Mycobacterium tuberculosis CrgA (Rv0011c), wild type, full length, with C-terminal His tag (natural protein)
# chain: MMPKSKVRKKNDFTVSAVSRTPMKVKVGPSSVWFVSLFIGLMLIGLIWLMVFQLAAIGSQAPTALNWMAQLGPWNYAIAFAFMITGLLLTMRWH
# B2: CrgA G39V mutant (natural protein)
# chain: B1 chain with G40V
# B3: CrgA G44V mutant (natural protein)
# chain: B1 chain with G45V
# B4: CrgA N74A mutant (natural protein)
# chain: B1 chain with N75A
# B5: CrgA A78V mutant (natural protein)
# chain: B1 chain with A79V
# Target: the molecule itself
# Test: SDS-PAGE
Protein,stoichiometry N,binding result
B1,2,–
B2,–,binds
B3,–,binds
B4,–,binds
B5,–,binds

# Reference: article PMC11643046 (bioRxiv, 2025)
